Assay results: publication PMC8860590, “Identification, functional characterization, assembly and structure of ToxIN type III toxin–antitoxin complex from E. coli”

Tests used:
[1] = target: T1, ToxN (ToxNEc) (Escherichia coli strain 680, UniProt PDB:7D8O_1 1-187); assay: ITC; no appreciable heat change; ITC: 50 mM KH2PO4 pH 7, 100 mM KCl, 15°C; 2-5 uM RNA in cell, 35-50 uM ToxN in syringe; settings: protein: recombinant; tags: N-terminal His6 (pCold II); pseudoknot
[2] = target: T1, ToxN (ToxNEc); assay: ITC; one-site fit; ITC: 50 mM KH2PO4 pH 7, 100 mM KCl, 15°C; 2-5 uM RNA in cell, 35-50 uM ToxN in syringe; settings: protein: recombinant, tags: N-terminal His6 (pCold II)

GGAGGUGAUUUGCUACCUUUAAGUGCA (structured_RNA) [27mer (core pseudoknot)]: no binding [1].

GGAGGUGAUUUGCUACCUUUAAGUGCAGCUAGAA (structured_RNA) [Δ5'-ToxI] gave a Kd ([2]; pseudoknot with 3' single-stranded overhang) of 47.3 ± 7.4 nM.

With GGAUUCAGGUGAUUUGCUACCUUUAAGUGCA (structured_RNA) [Δ3'-ToxI] the Kd ([2]; pseudoknot with 5' single-stranded overhang) was 243 ± 55 nM.
